Assay [1] concerns the target T1, EGF receptor (EGFR) (UniProt P00533 25-1210, tyrosine-phosphorylated in the C-terminal tail (cells treated with EGF and pervanadate); sites not stated).
T1 construct: Endogenous receptor of HEK 293 cells; detected with an anti-EGFR rabbit polyclonal antibody; also called epidermal growth factor receptor
The assay can be described thus: co-immunoprecipitation from HEK 293 cells, anti-GFP and anti-EGFR antibodies.

Assay [2] addresses T1, EGF receptor (EGFR). The assay can be described thus: co-immunoprecipitation from HEK 293 cells.
The target in assay [3] is T2, EGFR-pY978 peptide.
T2 construct: Synthetic pTyr-containing peptide
The assay can be described thus: fluorescence polarization in solution; reference wild-type Fyn SH2 domain. On the technique in general: In fluorescence polarisation assays a small probe gives low polarisation when free and higher when bound to something large.
Description: Measurements of fluorescence polarization were conducted by titrating the SH2 domain concentration, while keeping the peptide concentration constant. Kd values were calculated with the GraphPad Prism software, by assuming the one-site binding model (GraphPad Software).

A value given as a limit tells only on which side of the number the result lay.

B1: wild-type Fyn SH2 domain expressed as a GFP-fusion protein in HEK 293 cells (other, human, UniProt P06241 139-249, looked up)
chain: APVDSIQAEEWYFGKLGRKDAERQLLSFGNPRGTFLIRESETTKGAYSLSIRDWDDMKGDHVKHYKIRKLDNGGYYITTRAQFETLQQLVQHYSERAAGLCCRLVVPCHKG
notes: domain: SH2 domain; also called Wt Fyn SH2 domain; Wt; not shown: GFP encoded by the pEGFPC2 vector (Clontech)
As for B1, the binding result in assay [1] is “no binding”.

B2: A8V/S10A/K15L variant Grb2 SH2 domain expressed as a GFP-fusion protein in HEK 293 cells (designed binder)
chain: MKPHPWFFGKIPRAKAEEMLSKQRHDGAFLIRESESVPGDFALSVKFGNDVQHFLVLRDGAGKYFLWVVKFNSLNELVDYHRSTSVSRNQQIFLRDIEQVPQQP
notes: also called TrM Grb2 SH2 domain; 8V/10A/15L-substituted Grb2 SH2 domain; not shown: GFP encoded by the pEGFPC2 vector (Clontech)
Take B2: in assay [2], the binding result is “binds”.

B3: T8V/C10A/K15L variant Src SH2 domain expressed as a GFP-fusion protein in HEK 293 cells (designed binder)
chain: DSIQAEEWYFGKITRRESERLLLNAENPRGTFLVRESETVKGAYALSVSDFDNAKGLNVKHYLIRKLDSGGFYITSRTQFNSLQQLVAYYSKHADGLCHRLTTVCPTSK
notes: domain: SH2 domain; also called TrM Src SH2 domain; 8V/10A/15L-substituted Src SH2 domain; not shown: GFP encoded by the pEGFPC2 vector (Clontech)
On to B3, for which the binding result in assay [2] is reported as “binds”.

B4: T8V/S10A/K15L variant Fyn SH2 domain (designed binder)
chain: MKIEEHHHHHHSSGRENLYFQGGAAQPAAPVDSIQAEEWYFGKLGRKDAERQLLSFGNPRGTFLIRESETVKGAYALSIRDWDDMKGDHVKHYLIRKLDNGGYYITTRAQFETLQQLVQHYSERAAGLSSRLVVPSHKGAAA
For the molecule B4, in assay [3], the “fold affinity increase (Kd[wild-type] divided by Kd[variant])” value was > 1000 fold.

The values above are taken from patent US20190271705A1 (UNIVERSITY OF WESTERN ONTARIO, published 2019).
